Results on 3 compounds are retold here after patent US10279036B2, “Antibody-albumin nanoparticle complexes comprising albumin, bevacizumab, and paclitaxel, and methods of making and using the same” (Mayo Foundation for Medical Education and Research, priority 2012, dated 2019).

Read-outs that look alike come from different tables or passages of the source.

Data set [1] concerns the target T1, human serum albumin (Homo sapiens, UniProt P02768).
T1 construct: purchased
The data set is described as follows: Association and dissociation of AVASTIN with human serum albumin (streptavidin sensor). The data set is classed as binding. The conditions noted are these: read-out: dissociation constant. Here is the method: (§1) The association and dissociation of AVASTIN® with human serum albumin and ABRAXANE® were determined. In this experiment, biotinylated AVASTIN® was bound to a streptavidin sensor. After AVASTIN® loading to the sensor, the sensor was exposed to either 1 mg/mL of human serum albumin or 1 mg/mL of ABRAXANE®. […] The dissociation constants were calculated to be 6.2×10^−6 and 5.873×10^−7 for human serum albumin and ABRAXANE®, respectively.
(§2) The association and dissociation of albumin with AVASTIN® and AVASTIN® with ABRAXANE® were determined. In this experiment, biotinylated AVASTIN® or biotinylated Albumin® was bound to a streptavidin sensor. After albumin or AVASTIN® loading to the sensor, the sensor was exposed to 1 mg/mL of AVASTIN® or 1 mg/mL of ABRAXANE®, respectively. […] The dissociation constant calculated for albumin and AVASTIN® was 6.588×10^−10. The dissociation constant calculated for AVASTIN® and ABRAXANE® in this experiment was 1.698×10^−5.

The nature of data set [2]: Bevacizumab binding of free paclitaxel (Western blot). Conditions: 4 mg bevacizumab with 0.1-2 mg paclitaxel, 30 minutes room temperature. Here is the method: The following was performed to determine if bevacizumab binds free paclitaxel. 4 mg of bevacizumab was incubated with paclitaxel (0.1, 0.5, 1, or 2 mg) for 30 minutes at room temperature.
In general terms: A western blot detects proteins with antibodies after separation by electrophoresis.

Data set [3] addresses T2, ABRAXANE® (Homo sapiens, UniProt P02768).
T2 construct: purchased Celgene Corp
The data set is described as follows: Association and dissociation of AVASTIN (or IgG) with ABRAXANE (streptavidin sensor). In kind it is binding. The conditions noted are these: biotinylated AVASTIN on streptavidin sensor, 1 mg/mL ABRAXANE, read-out: dissociation constant. The method, then:
as §1, §2
The following was performed to assess protein binding due to deglycosylation of bevacizumab compared to naturally occurring IgG. In order to determine if bevacizumab binding to ABRAXANE® is due to the deglycosylation of the Fe chain of the antibody, the binding kinetics of bevacizumab were compare to naturally produced IgG isolated from human plasma.

In data set [4] the target is T3, ABRAXANE® nanoparticles (Homo sapiens, UniProt P02768).
T3 construct: purchased Celgene Corp
As to the kind of experiment: Complex formation of labeled therapeutic antibodies with labeled ABRAXANE nanoparticles (flow cytometry). The data set is classed as binding. Conditions: fluorescently labeled, FIG. 14. From the text:
The particles were spun down, washed, and visualized by flow cytometry.

For data set [5], the system named is A375 human melanoma tumor cells. The data set is described as follows: A375 xenograft, ABRAXANE/AVASTIN/cisplatin complexes. The conditions noted are these: treated once intravenously.
Method: Athymic nude mice were injected with 1×10^6 A375 human melanoma tumor cells. […] Following incubation, the complexes were diluted for mouse injection. Mice were treated once, and tumor growth was monitored for at least 80 days for all mice.
In data set [6] the test system is A375 melanoma tumor cells. As to the kind of experiment: A375 proliferation assay (DNA synthesis, EdU). The data set is classed as cell-based, human. The conditions noted are these: 100 μg/mL, overnight.
Method: After the overnight incubation, cell proliferation was determined by measuring the level of DNA synthesis.
After an overnight incubation, proliferation of the cells was measured by determining the level of DNA synthesis.
Proliferation of A375 melanoma tumor cells in vitro following exposure to various treatments was assessed. […] With reference to FIG. 33, the complexes were made with an ABRAXANE®: AVASTIN® at a 2.5 to 1 ratio. […] The nanoparticles were resuspended in 0.9% saline and added to the wells containing 50,000 A375 cells. The cells were incubated overnight at 37° C. The cells were stained with a thymidine analog, EdU, which incorporates into the DNA as cells proliferate. Cells that are actively proliferating stain positive. The proliferation index was calculated as the % positive cells in treated cells/% positive cells in untreated cells.
After the overnight incubation, the A375 cells were harvested, permeabolized and intracellularly stained with a FITC conjugated anti-EdU antibody. Cell proliferation was determined by DNA synthesis as a percentage of cells, which were FITC positive on a Guava 8HT flow cytometer (Millipore Billerica, Mass.). […] The proliferation index was calculated by dividing the percentage of proliferating cells in treated wells (FITC positive) by the percentage of cells proliferating in the untreated well.

With “AVASTIN®: humanized monoclonal antibody that binds to vascular endothelial growth factor A”, the Kd turned out to be 6200 nM in data set [1] (biotinylated AVASTIN on streptavidin sensor, 1 mg/mL human serum albumin); 0.659 nM in data set [1] (biotinylated albumin on streptavidin sensor, 1 mg/mL AVASTIN); 580 nM in data set [3] (first experiment, listed as bevacizumab); 587 nM in data set [3] (first experiment); 17000 nM in data set [3] (second experiment). Also, the “binding of free paclitaxel” value in data set [2] is “did not bind free paclitaxel”. In addition, the “complex formation with ABRAXANE nanoparticles” value in data set [4] was “spontaneously formed complexes with ABRAXANE® nanoparticles”.

On to `N.N.[Cl][Pt][Cl]` [cisplatin, cisdiamminedichloroplatinum (II)], for which the median survival in data set [5] is 9 days. For the same compound, the cells killed in data set [6] is recorded as 100%.

For the compound “rituxan: therapeutic monoclonal antibody”, the “complex formation with ABRAXANE nanoparticles” value in data set [4] is given as “spontaneously formed complexes with ABRAXANE® nanoparticles”.
